Measured values: US20030148958A1 (PROCTER AND GAMBLE, published 2003)
Ends that are not written are not given here.

T1: corticotropin releasing factor 2 receptor
T1 sequence (Q13324 whole entry, species assumed, looked up): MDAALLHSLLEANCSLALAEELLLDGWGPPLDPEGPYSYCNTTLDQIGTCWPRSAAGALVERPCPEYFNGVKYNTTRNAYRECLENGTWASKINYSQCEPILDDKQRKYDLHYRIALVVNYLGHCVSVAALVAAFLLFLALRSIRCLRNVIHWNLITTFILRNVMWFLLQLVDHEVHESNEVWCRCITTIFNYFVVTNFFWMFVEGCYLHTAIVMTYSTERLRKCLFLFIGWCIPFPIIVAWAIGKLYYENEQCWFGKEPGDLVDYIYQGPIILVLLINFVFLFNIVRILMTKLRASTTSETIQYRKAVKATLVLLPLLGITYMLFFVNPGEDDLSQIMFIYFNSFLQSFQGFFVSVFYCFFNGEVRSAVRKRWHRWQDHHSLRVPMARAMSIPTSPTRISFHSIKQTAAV


Experiments:
[1] = target: corticotropin releasing factor 1 receptor; assay: cell-based or functional assay
[2] = target: T1, corticotropin releasing factor 2 …; assay: cell-based or functional assay
Wherever CRF1R Emax is given: reference of the scale not given here.
Wherever CRF2R Emax is given: reference of the scale not given here.

| Binder | CRF1R EC50 [1] [nM] | CRF1R Emax [1] [%] | CRF2R EC50 [2] [nM] | CRF2R Emax [2] [%] |
| --- | --- | --- | --- | --- |
| DNPSLSIDLPFQLLRTLLELARTQSQRERAEQNAIIFASV-NH2 [SEQ ID NO 182] | 409 | 89.7 | 7.21 | 91.4 |
| DNPSLSIDLPLLLLRTLLELARTQSQRERAEQNAIIFASV-NH2 [SEQ ID NO 174] | 1000 | 29.1 | 4.42 | 97.2 |
| ZGPPISIDVPTYLLRKMIEIEKQEKEKQQATTNARILARV (C-terminal amide) [SEQ ID NO 170] | 1000 | 9 | 75 | 83 |
| ZGPPISIDVPFQLLRKMIEIEKQEKEKQQATTNARILARV (C-terminal amide) [SEQ ID NO 172] | 1000 | 68 | 13.5 | 100 |
| ZGPPISIDVPFQLLRILIEIEKQEKEKQQATTNARILARV (C-terminal amide) [SEQ ID NO 171] | 206 | 99 | 17.6 | 100 |
| DNPSLSIDLPLILLRTLLELARTQSQRERAEQNAIIFASV-NH2 [SEQ ID NO 175] | 1000 | 34.8 | 5.42 | 92.2 |
| ZGPPISIDLPHWLLRKMIEIEKQEKEKQQAANNRLLLDTI (C-terminal amide) [SEQ ID NO 186] | 323 | 100 | 25.1 | 100 |
| ZGPPISIDLPWFLLRKMIEIEKQEKEKQQAANNRLLLDTI (C-terminal amide) [SEQ ID NO 187] | 31.6 | 72 | 10.3 | 100 |
| ZGPPISIDLPLLLLRKMIEIEKQEKEKQQAANNRLLLDTI (C-terminal amide) [SEQ ID NO 188] | 162 | 96 | 14.6 | 100 |
| DNPSLSIDLPFLLLRTLLELARTQSQRERAEQNAIIFASV-NH2 [SEQ ID NO 180] | 125 | 99.3 | 3.14 | 95.7 |
| DNPSLSIDLPFYLLRTLLELARTQSQRERAEQNAIIFASV-NH2 [SEQ ID NO 183] | 415 | 57.5 | 7.93 | 100 |
| DNPSLSIDLPLYLLRTLLELARTQSQRERAEQNAIIFASV-NH2 [SEQ ID NO 177] | 613 | 69.2 | 5.63 | 97.7 |
| DNPSLSIDLPFHLLRTLLELARTQSQRERAEQNAIIFASV-NH2 [SEQ ID NO 185] | 358 | 95.8 | 8.98 | 100 |
| DNPSLSIDLPFFLLRTLLELARTQSQRERAEQNAIIFASV-NH2 [SEQ ID NO 184] | 486 | 77.3 | 3.72 | 96.5 |
| DNPSLSIDLPLFLLRTLLELARTQSQRERAEQNAIIFASV-NH2 [SEQ ID NO 178] | 1000 | 55.7 | 5.17 | 96.5 |
| ZGPPISIDLPFQLLRKMIEIEKQEKEKQQATTNRLLLDRV (C-terminal amide) [SEQ ID NO 18] | 106 | 100 | 5.29 | 97 |
| ZGPPISIDLPFQLLRKMIEIEKQEKEKQQATTNRLLLARV (C-terminal amide) [SEQ ID NO 19] | 232 | 83 | 7.42 | 75 |
| ZGPPISIDLPFVLLRKMIEIEKQEKEKQQAANNRLLLDTI (C-terminal amide) [SEQ ID NO 190] | > 100 | 9 | 39.6 | 31 |
| ZGPPISIDLPFILLRKMIEIEKQEKEKQQAANNRLLLDTI (C-terminal amide) [SEQ ID NO 189] | 62.2 | 57 | 7 | 96 |
| DNPSLSIDLPLHLLRTLLELARTQSQRERAEQNAIIFASV-NH2 [SEQ ID NO 179] | 477 | 78.9 | 10.2 | 92.5 |
| DNPSLSIDLPFILLRTLLELARTQSQRERAEQNAIIFASV-NH2 [SEQ ID NO 181] | 154 | 100 | 5.22 | 97.8 |
| DNPSLSIDLPLQLLRTLLELARTQSQRERAEQNAIIFASV-NH2 [SEQ ID NO 176] | 1000 | 26.9 | 12.6 | 90.2 |
| DNPSLSIDLPTYLLRTLLELARTQSQRERAEQNAIIFASV-NH2 [SEQ ID NO 173] | 1000 | 6.05 | 100 | 65.2 |
